# Source: paper PMC7290032 (Nature Communications, 2020)
# Target: MCM8-9 complex, purified (human, UniProt Q9NXL9-1 1-1143; Q9UJA3-1 1-840)
# Assay: cell-based or functional assay
# Chain of MCM8-9 complex, purified (Q9NXL9 whole entry, chain 1 of 2): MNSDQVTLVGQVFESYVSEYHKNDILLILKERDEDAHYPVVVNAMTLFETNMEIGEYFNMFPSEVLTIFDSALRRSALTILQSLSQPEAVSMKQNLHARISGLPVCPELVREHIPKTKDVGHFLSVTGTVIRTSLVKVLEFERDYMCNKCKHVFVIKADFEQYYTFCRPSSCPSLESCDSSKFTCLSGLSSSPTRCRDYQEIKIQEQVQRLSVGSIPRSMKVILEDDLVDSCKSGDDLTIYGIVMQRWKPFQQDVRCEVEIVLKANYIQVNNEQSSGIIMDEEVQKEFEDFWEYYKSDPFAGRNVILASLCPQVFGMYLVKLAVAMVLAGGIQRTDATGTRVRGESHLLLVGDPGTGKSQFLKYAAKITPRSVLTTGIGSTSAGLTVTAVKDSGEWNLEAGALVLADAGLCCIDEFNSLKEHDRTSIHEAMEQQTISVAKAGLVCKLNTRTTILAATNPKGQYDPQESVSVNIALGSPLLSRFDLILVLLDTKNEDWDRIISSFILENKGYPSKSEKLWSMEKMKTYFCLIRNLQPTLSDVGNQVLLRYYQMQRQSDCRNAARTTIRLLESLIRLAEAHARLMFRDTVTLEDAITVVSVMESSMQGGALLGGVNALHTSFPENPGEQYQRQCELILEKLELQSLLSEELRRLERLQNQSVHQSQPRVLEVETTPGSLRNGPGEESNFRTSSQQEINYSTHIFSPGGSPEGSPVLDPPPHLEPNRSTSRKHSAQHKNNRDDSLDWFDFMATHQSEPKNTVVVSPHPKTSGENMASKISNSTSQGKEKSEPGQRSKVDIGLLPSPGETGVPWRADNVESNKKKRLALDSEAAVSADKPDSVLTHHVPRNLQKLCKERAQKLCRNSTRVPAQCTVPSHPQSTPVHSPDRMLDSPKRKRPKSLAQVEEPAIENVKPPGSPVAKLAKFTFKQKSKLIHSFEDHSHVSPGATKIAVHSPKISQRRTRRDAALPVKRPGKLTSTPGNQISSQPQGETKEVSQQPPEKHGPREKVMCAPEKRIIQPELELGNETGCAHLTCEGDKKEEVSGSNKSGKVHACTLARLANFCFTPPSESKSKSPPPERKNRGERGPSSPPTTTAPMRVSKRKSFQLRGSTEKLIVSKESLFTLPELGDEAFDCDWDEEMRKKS
# Chain of MCM8-9 complex, purified (Q9UJA3 whole entry, chain 2 of 2): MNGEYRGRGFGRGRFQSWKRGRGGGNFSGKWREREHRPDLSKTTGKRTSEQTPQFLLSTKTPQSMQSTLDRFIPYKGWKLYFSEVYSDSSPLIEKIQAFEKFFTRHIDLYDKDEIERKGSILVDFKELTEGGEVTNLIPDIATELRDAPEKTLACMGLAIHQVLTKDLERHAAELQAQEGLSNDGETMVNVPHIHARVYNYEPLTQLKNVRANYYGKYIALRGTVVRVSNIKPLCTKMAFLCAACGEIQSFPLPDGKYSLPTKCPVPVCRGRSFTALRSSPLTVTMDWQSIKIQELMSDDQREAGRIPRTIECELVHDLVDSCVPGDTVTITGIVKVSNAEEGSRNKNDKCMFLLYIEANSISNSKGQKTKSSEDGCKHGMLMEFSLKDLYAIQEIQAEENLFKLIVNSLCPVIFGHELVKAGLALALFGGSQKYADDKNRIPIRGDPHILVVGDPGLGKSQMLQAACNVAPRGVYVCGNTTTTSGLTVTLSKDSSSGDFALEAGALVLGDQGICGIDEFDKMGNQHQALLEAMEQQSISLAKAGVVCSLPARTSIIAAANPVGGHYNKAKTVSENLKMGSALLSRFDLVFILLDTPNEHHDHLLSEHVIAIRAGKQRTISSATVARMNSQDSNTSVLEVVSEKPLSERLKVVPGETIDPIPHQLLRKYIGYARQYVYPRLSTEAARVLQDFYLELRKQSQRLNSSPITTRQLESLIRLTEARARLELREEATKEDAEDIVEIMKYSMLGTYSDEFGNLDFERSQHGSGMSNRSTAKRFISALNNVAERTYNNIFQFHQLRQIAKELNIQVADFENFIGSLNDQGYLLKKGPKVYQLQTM
binder,measurement,value
"MCM8IP-FLAG WT (recombinant) (natural protein, human, UniProt Q8N3J3-4 1-646, looked up) MACSLQKLFAVEEEFEDEDFLSAVEDAENRFTGSLPVNAGRLRPVSSRPQETVQAQSSRLLLLHPTAPSEALGLPDLDLCLPASSTPSADSRPSCIGAAPLRPVSTSSSWIGNQRRVTVTEVLRETARPQSSALHPLLTFESQQQQVGGFEGPEQDEFDKVLASMELEEPGMELECGVSSEAIPILPAQQREGSVLAKKARVVDLSGSCQKGPVPAIHKAGIMSAQDESLDPVIQCRTPRPPLRPGAVGHLPVPTALTVPTQQLHWEVCPQRSPVQALQPLQAARGTIQSSPQNRFPCQPFQSPSSWLSGKAHLPRPRTPNSSCSTPSRTSSGLFPRIPLQPQAPVSSIGSPVGTPKGPQGALQTPIVTNHLVQLVTAASRTPQQPTHPSTRAKTRRFPGPAGILPHQQSGRSLEDIMVSAPQTPTHGALAKFQTEIVASSQASVEEDFGRGPWLTMKSTLGLDERDPSCFLCTYSIVMVLRKAALKQLPRNKVPNMAVMIKSLTRSTMDASVVFKDPTGEMQGTVHRLLLETCQNELKPGSVLLLKQIGVFSPSLRNHYLNVTPNNLVHIYSPDSGDGSFLKPSQPFPKDSGSFQHDVAAKPEEGFRTAQNLEAEASPEEELPEADDLDGLLSELPEDFFCGTSS","DNA unwinding (helicase assay): 32P-labelled oligo annealed to M13mp18 ssDNA, MCM8-9 100 nM, MCM8IP 50 nM, with ATP",~6 fold
